From the nanobody polyreactivity screen of Harvey et al. (2022)

Assay: yeast display, Sf9 membrane polyspecificity reagent, FACS + sequencing; frameworks hold sequencing errors
Outline: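 Sorting gates, low and high (top ~1%), were placed on anti-HA fluorescence to track expression and on streptavidin fluorescence to track reagent binding. A clone's polyreactivity label is taken from the gate it came out of. The reagent was 10% biotinylated, detergent-solubilized Sf9 membrane, applied for 1 hour at 4 °C to galactose-induced yeast display cells.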

| Sequence | polyreactivity (PSR sort gate) |
| --- | --- |
| QVQLVESGGGLVQAGGSLRLSCAASGSIFRRYAMGWYRKAPGKEREMVAGISRTGSRTYYADSVKGRFTISRDNAKNTVYLQMNSLKPEDTAVYYCAALGPGRSGFFRYDYWGQGTQVTVSS | high polyreactivity |
| QVQLVESGGGLVQAGGSLRLSCAASGFISPSYDMGWYRQAPGKEWELVAAIRSSDGSTYYADSVKGRFTISRDNAKNTVYLQMNSLKPEDTAVYYCNKGVVLTLYVGMDYWGQGTQVTVSS | low polyreactivity |
| QVQLVESGGGLVQAGGSLRLSCAASGRTCKYYAMGWYRQAPGKERELVATITWSGTSTNNADSVKGRFTISRDNAKNTVYLQMNSLKPEETAVYYCAARSKRRNYDYWGQGTQVTVSS | high polyreactivity |
| QGQLVESGGGLVQAGGSLRLSCSASGLIFYRYTMGWYRQAPGKEREVVAAISSGGRTYSADSVKGRFTISRDNAKNTVYLQMNSLKPEDTAVYYCATRVYSVHAPSAVPIGGYYWGQGTQVTVSS | high polyreactivity |
| QVQLVESAGGLVQEGGSLRLSCAASGRTFYNAMGGYRQAPGKERELVAAISANGGSTTYADSVKGRFTISRDNAKNTVYLQMNSLKPEDTAVYYCNTYYWYSGSPYDYWGQGTQVTVSS | low polyreactivity |
| QLQLVESGGGLVQAGGSLRLSCAASGRNFGYNAMGWYRPAPGKERELVAVINIDGSTNYADSVKGRFTISRDNAKNTVYLQLNSLNPEDTAVYYCAARYWKSYRNGGFFGFTYYYWGQGTQVTVSS | high polyreactivity |
| QVQLVESGGGLVQAGGSLRLSCAASGSIFLVNAMGWYRQAPGKERELVAAISWGGGSTYYADSVKGRFTISRDNAKNTVYVQMNSLKPEDTAVYYCAAESYYYIRYFDYSRWMGYWGQGTQVTVSS | low polyreactivity |
| QVQLVESGGGLVQAGGSLRLSCAASGFTFVSYAMGWYRQAPGKERELVAAITSNGGSTYYADSVKGRFTISRDNAKNTVYLQMNSLKPEDTAVYYCAAAGFWHGYFGYGYWGQGTQVTVSS | low polyreactivity |
| QVQLVESGGGLVQAGGSLRLSCAASGITFRNYAMGWYRQAPGKEREFVAAIRWGGGSTYYEDSGKGRFTISLDNAKNTVYLQMNSLKPEDTAVYYCATRGYSRNNPYSRPYDYWGQGTQVTVSS | high polyreactivity |
| QVQLVESGGGLDQAGGSLSLSCAASGLIINSNTMGWYRQAPGKERELVAVINWRGGRTYYADSVKGRFTISRDNAKNTVDLQMNSLKPEDTAVYYCAAYLHGARYGYWGQGTQVTVSS | high polyreactivity |
| QLQLVESGGGLDQAGGSLRLSCAASGFTFVSYAMGWYRQAPGKERELVAVISYRAGSTYYADSVKGRFTISRDNAKNTVYLQMYSLKPEDTAVYYCATDRYSRRNDYWGQGTQVTVSS | high polyreactivity |
| QVQLVESGGGLVQAGGSLRLSCAASGRTFSPYAMGWYRQAPGKERELVAAITSRGASTYYADSVKGRFTISRDNAKNTVYLQINSLKPEDTAVYYCNSGRTYRRLGDYWGQGTQVTVSS | high polyreactivity |
| QVQLVESGGGLVQAGGSLRIICAASGRTLSGYAMGWYRQAPGKERELVAAISSDGRTYYADSVKGRFTISRDNAKNTVYLQMNSLKPEDTAVYYCAARANPYVLKYYYWGQGTQVTVSS | high polyreactivity |
| QVQVVESGGGLVQAGGSLRLSCAASGSTFRYYAMGWYRQAAGKERELVASITVSVGRTYYADSVKGRFTISRDYAKNTVYLQMNILKPEDTAVYYCAAPRGRLVRPPKYYYWGQGTQLTVSS | high polyreactivity |
| EVQLVESGVGLVQAGGSLRLSCAASASIFLSYAMGCYRQAPGKVRELVDAISRRGGSTYYADSVKGRFTISRDFAKNTVYLQMNSLKPEDTAVYYCAADLTGPYDYWGQGTQVTVSS | high polyreactivity |
| QVQLEESGGGLVQAGGSLRLSCAASGSIFSTYAMGWYRQAPGKERELVSAINSGDSTSYADSVKGRFTISRDNAKNTVYLQRNSLKPEDTAVYYCAAKTGGYWYLRRTGRYESWGQGTQVTVSS | low polyreactivity |

| Sequence | polyreactivity (PSR sort gate) |
| --- | --- |
| QVQLVESGGGLVQAGGSLRLSCAASGRILGKYAMGWYRQAAGKERELVAAIRLRGGSTYYADSVKGRFTISRDNAKNTVYLQMNSLKPEDTAVYYCAARYWDRSQAYNYWGQGTQVTVSS | high polyreactivity |
| QVQLVESGGGLVQAGGSLRLSCAASGLTLYTYAMGWYRQAPGKERELVAAISKNGGRTYYADSVKGRFTISRDNANNTVYLQMNSLKPEDTAVYYCAARARVGSVTFDYWGQGTQVTVSS | high polyreactivity |
| QVQLVESGGGLVQAGGSLRLSCAASGRTFSKYTMGWYRQATGKERELVAVISRSGTRTYYADSVKGRFTISRDNAKNTVYLQMNSLKREDTAVYYCAAKDERRSFGMGYWGQGTQVTVSS | high polyreactivity |
| QVQLVESGGGLVQAGGSLRLSCAASGFNFIKYAMGWSRQSPGKESELVAAISFRGGRTYYADSVKGRITISRDNAKNTVYLQMNSLKPEDTAVYYCAAETRDYSEGYYWGQGTQVTVSS | high polyreactivity |
| RYADSVKGRFTISRDNAKNTDYLQMNSLKPEDTAVYYCAAKGPEPPSLDESDYWGQVTQVTVSS | low polyreactivity |
| QVQLVESGGGLVQAGGSLRLSCAASGRIFLINALGCYRQAPGKERELVAAIRTGGNTYYADSVKGRFTISRDNAKNTVYLQMNSLKPEDTAVYSCAADRIYPYYRWSGAHRSDVDYWGQGTQVTVSS | low polyreactivity |
| QVQLVESGGGLVQAGGSLRLSCAASGRIFDRNAMGWYRQAPGTERELVAAISRRGGSTYYADSVKGRFTISRDNAMNTVYLQMNSLKPEDTAVYYCNTGYSTRLHDYWGQGTQVTVSS | high polyreactivity |
| QVQLVESGGGLVQAGGSLRLSCAASGITFNYYAMGWYRQAPGKERELVAAISLSGGRTRYADSVKGRFTISRDNAKNTVYLQMNSLKPEDTAVYYCAAYSFRYVPWPDGMGYWGQGTQVTVSS | high polyreactivity |
| QVQLVESGGGLVQAGGSLRLSCAASGSTFTAYAMGWYRQAPGKERELVAAINWSGGTTYYADSVKGRFTISRDNAKNTVYLQMNSLKPEDTAVYSCAVDGNFFGEVRPYDYWGQGTQVTVSS | low polyreactivity |
| QVQLVESGGGLVQAGGSLRLSCAASGSTFTVYAMRWYRQAPGKERELVADITGGGRTYYADSVKGRFTISRDNAKNTVYLQMNSLKPEDTAVYYCAKKYSWRYARVYSLHFDYWGQGTQVTVSS | high polyreactivity |
| QVQLVESGGGLVQAGGSLRLSCAASGFIFDYYAMGWYRQAPGKERELVAAITSRGGSTYYADSVKGRFTISRDNAKNTVYLQMNSLKPEDTAVYYCAARRRSAEYNYWGQGTQVTVSS | high polyreactivity |
| QVQLVESGGGLVQAGGSLRLSCAASGNTLIQYAMGWIIQAPGKEREVLAGISGTDDSTYYADSVKGRFTISRDNAKNTVYFQMTSLKPEDRSVYYCATREWYDKYPNIYVSFDYWGQGTQVTVSS | low polyreactivity |
| QVQLVESGGGLVQAGGSLRLSCAASGSIFNGYAMGWYRQSPGKERELVAVISGSGGSTYYADSVKGRFTISRDNAKNTVYLQMNSLKPEDTAVYYCAAKPGYYGYWGQGTQVTVSS | high polyreactivity |
| QVQLVESGGGLVQAGGSLRLSCAASGSIFYGYAMGWYRQAPRKERELVAAISSSGGSTYYADSVKGRFTISRDTAKNTVYLQMNSLKPEDTAVSYCARSRSYWGIVYGRYDYWGQGTQVTVSS | high polyreactivity |
| QVQLVESGGGLVQAGGSLRLSCAASGSIFYYYAMARYRPAPGKERELVASITSSGGTTSYADSVKGRFRISRDNAKNTVYLQMISLKPEDTAVYYCNAQVYRYRIGYDYWGQGTQVTVSS | low polyreactivity |
| QVQLVESGGGLVQAGGSLRLSCAASGSTFTVYAMGWYRQAPGKEREFVAAITRRGGNTYYADSVKGRFTISRDNAKNTVYLQMNSLKPEDTAVYYCNADSPLNAYYGGRELDYWGQGTQVTVSS | high polyreactivity |
